Data from the RNAGym collection of RNA variant scans (doi:10.7554/elife.80360).

B1: HDV Ribozyme (parent)
chain: GGCCGGCAUGGUCCCAGCCUCCUCGCUGGCGCCGGCUGGGCAACAUUCCGAGGGGACCGUCCCCUCGGUAAUGGCGAAUGGGACCCA

Variants of: B1
Test: self-cleavage, relative activity (ratio to wild type); higher = more cleavage; co-transcriptional

| Variant | self-cleavage |
| --- | --- |
| GGCCGGCAUGGUCCCAGCCUCCUCGCUGGCGCCGGCUGGGCAAGAUUCCGAGGGGACCAUCCCCUCGGUAAUGGCGAAUGGGACCCA [C44G G59A] | 0.636 |
| GGCCGGCAUGGUCCCAGCCUCCUCGCUGGCGCCGGCUGGGCAUCAUUCCGAGGGGACCGUCCCCUCGGUAAUUGCGAAUGGGACCCA [A43U G73U] | 0.141 |
| GGCCGGCAUGGUCCCAGCCUCCUCGCUGGCGCCGGCUGGGCAAAAUUACGAGGGGACCGUCCCCUCGGUAAUGGCGAAUGGGACCCA [C44A C48A] | 0.88 |
| GGCCGGCAUGGUCCCAGCCUCCUCGCUGGCGCCGGCUGGGCAUCAUUCCGAGGGGACCGUCCCCUCGGUAAUGGCGAAAGGGACCCA [A43U U79A] | 0.122 |
| GGCCGGCAUGGUCCCAGCCUCCUCGCUGGCGCCGGCUGGGCAUCAUUCCGAGGGGACCGUCCCCUCGGUAAUGGCGAAGGGGACCCA [A43U U79G] | 0.162 |
| GGCCGGCAUGGUCCCAGCCUCCUCGCUGGCGCCGGCUGGGCAAAAUUCCGAGGGGACCGUCCCCUCGGUAGUGGCGAAUGGGACCCA [C44A A71G] | 0.427 |
| GGCCGGCAUGGUCCCAGCCUCCUCGCUGGCGCCGGCUGGGCAAAAUUCCGAGGGGACCGUCCCCUCAGUAAUGGCGAAUGGGACCCA [C44A G67A] | 0.415 |
| GGCCGGCAUGGUCCCAGCCUCCUCGCUGGCGCCGGCUGGGCAAAAUUCCGAGGGGACCGUCCCCUCUGUAAUGGCGAAUGGGACCCA [C44A G67U] | 0.658 |
| GGCCGGCAUGGUCCCAGCCUCCUCGCUGGCGCCGGCUGGGCAAAAUUCCGAGGGGGCCGUCCCCUCGGUAAUGGCGAAUGGGACCCA [C44A A56G] | 0.875 |
| GGCCGGCAUGGUCCCAGCCUCCUCGCUGGCGCCGGCUGGGCAAAAUUCCGAGGGGACCGUCCCCUUGGUAAUGGCGAAUGGGACCCA [C44A C66U] | 0.809 |
| GGCCGGCAUGGUCCCAGCCUCCUCGCUGGCGCCGGCUGGGCAAAAUUCCGAGGGGACCGUCCCCUCGGUAAUGGCGAAGGGGACCCA [C44A U79G] | 0.128 |
| GGCCGGCAUGGUCCCAGCCUCCUCGCUGGCGCCGGCUGGGCAAGAUUCCGAGGGGACCGUCCCCUCGGUAUUGGCGAAUGGGACCCA [C44G A71U] | 0.962 |
| GGCCGGCAUGGUCCCAGCCUCCUCGCUGGCGCCGGCUGGGCAAAAUUCCGAGGGGACCGUCCCCUCGGUAAUGGCGAAUGCGACCCA [C44A G81C] | 0.178 |
| GGCCGGCAUGGUCCCAGCCUCCUCGCUGGCGCCGGCUGGGCAAAAUUCCGAGGGGACCGUCCCCUCGGUAAUGGCGAAUGAGACCCA [C44A G81A] | 0.125 |
| GGCCGGCAUGGUCCCAGCCUCCUCGCUGGCGCCGGCUGGGCAAGAUUCCGAGCGGACCGUCCCCUCGGUAAUGGCGAAUGGGACCCA [C44G G53C] | 0.733 |
| GGCCGGCAUGGUCCCAGCCUCCUCGCUGGCGCCGGCUGGGCAAGAUUCCGAAGGGACCGUCCCCUCGGUAAUGGCGAAUGGGACCCA [C44G G52A] | 0.636 |

| Variant | self-cleavage |
| --- | --- |
| GGCCGGCAUGGUCCCAGCCUCCUCGCUGGCGCCGGCUGGGCAAGAUUCCGAUGGGACCGUCCCCUCGGUAAUGGCGAAUGGGACCCA [C44G G52U] | 0.727 |
| GGCCGGCAUGGUCCCAGCCUCCUCGCUGGCGCCGGCUGGGCAAAAUUCCGAGGGGACUGUCCCCUCGGUAAUGGCGAAUGGGACCCA [C44A C58U] | 0.689 |
| GGCCGGCAUGGUCCCAGCCUCCUCGCUGGCGCCGGCUGGGCAAAAGUCCGAGGGGACCGUCCCCUCGGUAAUGGCGAAUGGGACCCA [C44A U46G] | 0.785 |
| GGCCGGCAUGGUCCCAGCCUCCUCGCUGGCGCCGGCUGGGCAAAAAUCCGAGGGGACCGUCCCCUCGGUAAUGGCGAAUGGGACCCA [C44A U46A] | 0.677 |
| GGCCGGCAUGGUCCCAGCCUCCUCGCUGGCGCCGGCUGGGCAAAAUUCCGAGGGGACCGUCCCCUCGGUCAUGGCGAAUGGGACCCA [C44A A70C] | 0.465 |
| GGCCGGCAUGGUCCCAGCCUCCUCGCUGGCGCCGGCUGGGCAAAAUUCCGAGGGGACCGUCCCCUCGGUUAUGGCGAAUGGGACCCA [C44A A70U] | 0.571 |
| GGCCGGCAUGGUCCCAGCCUCCUCGCUGGCGCCGGCUGGGCAAAAUUCCGAGGGGACCGUCCCCUCGGUGAUGGCGAAUGGGACCCA [C44A A70G] | 0.703 |
| GGCCGGCAUGGUCCCAGCCUCCUCGCUGGCGCCGGCUGGGCAAAAUUCCGAGGGGACCGUCCCCUCGGUAAUGGCGAAUGGGACCAA [C44A C86A] | 1.08 |
| GGCCGGCAUGGUCCCAGCCUCCUCGCUGGCGCCGGCUGGGCAAAAUUCCGAGGGGACCGUCCCCUCGGUAAUGGCGAAUGGGACCUA [C44A C86U] | 1.01 |
| GGCCGGCAUGGUCCCAGCCUCCUCGCUGGCGCCGGCUGGGCAAGAUUCGGAGGGGACCGUCCCCUCGGUAAUGGCGAAUGGGACCCA [C44G C49G] | 0.68 |
| GGCCGGCAUGGUCCCAGCCUCCUCGCUGGCGCCGGCUGGGCAAAAUUCCGAGGGGACCGUCCCCUCGGUAAUGGCGAAUGGGACCCG [C44A A87G] | 0.649 |
| GGCCGGCAUGGUCCCAGCCUCCUCGCUGGCGCCGGCUGGGCAAAAUUCCGAGGGGAUCGUCCCCUCGGUAAUGGCGAAUGGGACCCA [C44A C57U] | 0.582 |
| GGCCGGCAUGGUCCCAGCCUCCUCGCUGGCGCCGGCUGGGCAAAAUUCCGAGGGGACCGUCCACUCGGUAAUGGCGAAUGGGACCCA [C44A C63A] | 0.882 |
| GGCCGGCAUGGUCCCAGCCUCCUCGCUGGCGCCGGCUGGGCAAAAUUCCGAGGGGACCGUCCCCUCGGUAAUGGCGAAUGGAACCCA [C44A G82A] | 0.153 |
| GGCCGGCAUGGUCCCAGCCUCCUCGCUGGCGCCGGCUGGGCAAAAUUCCGAGGGGACCGUCCCCUCGGUAAUGGCGAAUGGCACCCA [C44A G82C] | 0.0773 |
| GGCCGGCAUGGUCCCAGCCUCCUCGCUGGCGCCGGCUGGGCAAGAUUCCGAGGGGACCGUCCCCUCGGUUAUGGCGAAUGGGACCCA [C44G A70U] | 0.804 |
